Measured values: US7888315B2, “Use of aspartic proteases in cosmetics and therapeutics” (L'Oreal, priority 2002, dated 2011)
Substitutions are numbered along the chain they refer to. [ ]: non-standard residue; d: D form. Nle = CCCC[C@H](N)C(=O)O

Assays:
corneodesmosin = experiment: Degradation of corneodesmosin extracted from human stratum corneum; format: biochemical; details: for % Residual corneodesmosin T24 h/T0*100 / Standardized corneodesmosin T24 h / Standardized corneodesmosin T0: stratum corneum acetone powder; for % Residual corneodesmosin T24 h/T0*100 / Standardized corneodesmosin T24 h: acetate buffer pH 5, 30° C.; for Standardized corneodesmosin T0: acetate buffer pH 5, T0
Procedure: Corneodesmosin is a marker for desquamation since it is involved in corneocyte cohesion at corneodesmosomes. The more the protein is degraded, the more significant is the detachment of the corneocytes. Corneodesmosin degradation is therefore a key step of desquamation.
The test used in this study therefore consists in following this degradation in the presence of the test substance.
Acetone powders are prepared using stripping varnish (Mehul B, Bernard D, Simonetti L, Bernard M A, Schmidt R: Identification and cloning of a new calmodulin-like protein from human epidermis. J Biol Chem 275: […], 2000), taken from the lower parts of the legs of volunteers with dry skin. Aliquot fractions of 2 mg of stratum corneum powder are introduced separately into Eppendorf tubes, and then immersed in the test solutions in a proportion of 100 μl/mg. The solutions are prepared in acetate buffer, pH 5. A control without protease is prepared in parallel in order to evaluate the natural degradation of corneodesmosin. For each test, three samples are prepared. The samples, trials and control, are incubated at 30° C., with stirring for 24 hours.
The proteins are extracted with complete Laemmli buffer. They are assayed by the Bradford method (Bio-Rad® kit). The concentration of each sample is adjusted so as to allow comparison of the samples. The polypeptides are separated by SDS-PAGE electrophoresis on a 15% acrylamide gel, and then transferred onto a PVDF membrane. Immunodetection with a solution of anti-corneodesmosin antibody used at 1/12 500 and of secondary antibody coupled to peroxidase makes it possible to visualize the corneodesmosin. The bands detected by chemiluminescence are quantified using the Quantity One® program from the company Biorad. The membranes are then stained with amido-black, and then scanned. In addition, the keratins, which are major proteins of corneocyte extracts, are quantified in order to verify the adjustment to 0.6 mg/ml of all the samples.
A positive control for degradation (+) is prepared using 5 mM of EDTA. A trial is carried out in the presence of 60 μg of activated SASPase. A negative control represents the natural degradation of corneodesmosin under the operating conditions of the test.

[1] = target: T1, activated SASPase (SEQ ID NO: 6) (Homo sapiens, UniProt Q53RT3); experiment: Effect of retropepsin inhibitors on the caseinolytic activity of the activated SASPase; format: biochemical; details: activated SASPase in 0.1 M acetate buffer pH 5.5 with DMSO, pre-incubated 1 hour at 4° C., Enzchek casein, 37° C., FIG. 3
T1 construct: GST (N, cleaved yes); made in house; host or cells: E. coli BL21 (DE3)
T1 sequence (Q53RT3 189-326): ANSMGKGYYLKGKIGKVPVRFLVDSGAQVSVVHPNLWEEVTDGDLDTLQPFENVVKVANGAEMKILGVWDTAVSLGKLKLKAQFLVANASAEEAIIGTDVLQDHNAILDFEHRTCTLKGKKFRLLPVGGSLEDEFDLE
Procedure: 10 μl of activated SASPase (SEQ ID NO: 6) that have been autoactivated (approximately 3 mg/ml) are added to 200 μl of 0.1 M acetate buffer, pH 5.5, containing 20 μl of DMSO with retropepsin inhibitors. A control assay is carried out under the same conditions in the absence of inhibitor.
The mixture is pre-incubated at 4° C. for 1 hour, and the substrate, casein, sold under the name Enzchek® by the company Molecular Probes, is then added in sufficient amount to obtain the concentration recommended by the supplier, the solutions having been heated to 37° C. beforehand.
The casein hydrolysis is followed by measuring the fluorescence on a Biolumin® plate reader sold by the company Molecular Probes, using the excitation/emission couple: 485/535 nm.

SASPase (GST-C27) = target: T2, SASPase (GST-C27) (Homo sapiens, UniProt Q53RT3); experiment: Hydrolysis of quenched Abz/(NO2)Tyr peptide substrates by the SASPase; format: biochemical
T2 construct: made in house; host or cells: E. coli BL21 (DE3)
T2 sequence (Q53RT3 85-343): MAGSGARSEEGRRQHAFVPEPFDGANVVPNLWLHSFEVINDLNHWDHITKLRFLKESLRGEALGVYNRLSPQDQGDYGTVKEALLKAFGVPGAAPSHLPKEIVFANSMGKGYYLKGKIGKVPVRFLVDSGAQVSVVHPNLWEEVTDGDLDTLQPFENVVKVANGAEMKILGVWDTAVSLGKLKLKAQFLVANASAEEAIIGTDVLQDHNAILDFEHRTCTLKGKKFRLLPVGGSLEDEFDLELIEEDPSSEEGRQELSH
Procedure: The peptide substrate considered (SEQ ID NO: 31, SEQ ID NO: 32, SEQ ID NO: 33, SEQ ID NO: 34 or SEQ ID NO: 35) quenched using the Abz/(NO2)Tyr fluorescent system is used at 100 μM in DMSO, and then 10 μl of this stock substrate solution are added per 100 μl of 0.1 M acetate buffer, pH 5.00.
10 μg of GST-C27 (fusion protein at 1 mg/ml in PBS) are added. Incubation is carried out at 37° C. The fluorescence is read at 340/450 nm on a Biolumin plate reader at various times.

[2] = system: SASPase C27 (autocleavage); experiment: Autocleavage of the SASPase C27 and of its mutants (SDS-PAGE); format: biochemical, human; details: fusion protein in 1 M acetate buffer pH 4.5, 37° C., SDS-PAGE over time
Procedure: The SASPase sequence SEQ ID NO: 5 is modified at aspartic acid No. 212, i.e. on its potential active site. To do this, two oligonucleotides are synthesized such that amino acid 212 is substituted either to alanine (mutant A/D), or to glutamic acid (mutant E/D).
The mutated recombinant proteins are produced according to the same protocol as for the wild-type form, SASPase C27; (SEQ ID NO: 4).
Each recombinant protein produced in fusion protein form is then incubated in a 1 M acetate buffer, pH 4.5, at 37° C. Samples are taken over time and are analyzed by SDS-PAGE.

[3] = system: oxidized beta-chain of insulin; experiment: Hydrolysis of the oxidized beta-chain of insulin followed by HPLC; format: biochemical
Procedure: The oxidized beta-chain of insulin (Sigma) is used as substrate. The concentration is 50 μg in 1.5 ml of 0.1 M acetate buffer, pH 5.0. 50 μl of 12 kD SASPase (SEQ ID NO: 6) (approximately 1 mg/ml) purified by gel filtration are added so as to initialize the hydrolysis. Controls without enzyme or without substrate are used. Over time (1 h to 24 h at 37° C.), HPLCs are performed in order to follow the hydrolysis. The peaks that appear rapidly correspond to the main hydrolysis sites and those that only appear after 24 h correspond to the secondary sites. The peaks are collected after they have been fractionated, and are N-terminal sequences (EDMAN sequencing, Pasteur Institute).

casein = experiment: Influence of pH on the proteolytic activity of SASPase (Enzchek casein substrate); format: biochemical
Procedure: 10 μl of GST-SASPase Δ 1-84 fusion proteins (approximately 3 mg/ml) obtained in example II are incubated in 200 μl of 0.1 M acetate buffer, adjusted to various pH values in the presence of the casein substrate sold under the name Enzchek® by the company Molecular Probes, and used at the concentrations recommended by the supplier.
Each assay is repeated three times.
After incubation at 37° C. for 20 hours, the fluorescence is measured on a plate reader sold under the name Biolumin® by the company Molecular Probes, using the excitation/emission couple: 485/535 nm.

## O=C(O)CN(CCN(CC(=O)O)CC(=O)O)CC(=O)O [+control, EDTA, reference compound]
corneodesmosin; 24 hours
  % Residual corneodesmosin T24 h/T0*100: 84%
  Standardized corneodesmosin T24 h: 26685
corneodesmosin
  Standardized corneodesmosin T0: 31657

## Ac-Leu-Leu-Met-aldehyde [RP2]
[1]
  kinetics for casein hydrolysis compared with the control: lower than the control

## Ac-Leu-Leu-Nle-aldehyde (Ac-Leu-Leu-[Nle]-aldehyde) [RP3]
[1]
  kinetics for casein hydrolysis compared with the control: significantly higher

## Ac-Leu-Val-Phe-aldehyde [RP1]
[1]
  kinetics for casein hydrolysis compared with the control: lower than the control

## EFDLDLIEED (listed as Homo sapiens) [SEQ ID NO: 32]
SASPase (GST-C27)
  effect of the peptide substrate on the SASPase: activator effect

## EFDLELIEED (listed as Homo sapiens) [SEQ ID NO: 31]
SASPase (GST-C27)
  effect of the peptide substrate on the SASPase: activator effect
SASPase (GST-C27); 0.1 M acetate buffer pH 5.00, 10 μg GST-C27, 37° C., fluorescence 340/450 nm, FIG. 5
  hydrolysis of the peptide substrate by the SASPase: effectively hydrolyzed

B1: GST-SASPase C27: recombinant fusion protein of glutathione S-transferase with truncated SASPase Δ 1-84 (SEQ ID NO: 4) (protein, listed as Homo Sapiens)
chain: T2 sequence (Q53RT3 85-343)
[2]
  autocleavage / autoactivation: autocleavage

B2: SASPase: novel aspartic acid protease from human keratinocytes, sequence SEQ ID NO: 5; in b201 and b239 the word covers the form tested (protein, listed as Homo Sapiens)
chain: MGSPGASLGIKKALQSEQATALPASAPAVSQPTAPAPSCLPKAGQVIPTLLREAPFSSVIAPTLLCGFLFLAWVAAEVPEESSRMAGSGARSEEGRRQHAFVPEPFDGANVVPNLWLHSFEVINDLNHWDHITKLRFLKESLRGEALGVYNRLSPQDQGDYGTVKEALLKAFGVPGAAPSHLPKEIVFANSMGKGYYLKGKIGKVPVRFLVDSGAQVSVVHPNLWEEVTDGDLDTLQPFENVVKVANGAEMKILGVWDTAVSLGKLKLKAQFLVANASAEEAIIGTDVLQDHNAILDFEHRTCTLKGKKFRLLPVGGSLEDEFDLELIEEDPSSEEGRQELSH
[3]; heat denaturation 95° C., 10 min
  insulin-degrading activity after heat denaturation: abolishes its insulin-degrading activity
casein; 0.1 M phosphate buffer of pH 6 to 7.5, assays not shown
  activity in phosphate buffer: only a weak residual activity
casein; GST-SASPase Δ 1-84 fusion protein, 0.1 M acetate buffer, 37° C., 20 hours, FIG. 2
  optimal pH of enzymatic activity: 5 pH

B3: (A/D): SASPase mutant, aspartic acid No. 212 substituted to alanine (protein, UniProt Q53RT3 191-326, looked up, variant D212A)
Retroviral-like aspartic …: SMGKGYYLKGKIGKVPVRFLVASGAQVSVVHPNLWEEVTDGDLDTLQPFENVVKVANGAEMKILGVWDTAVSLGKLKLKAQFLVANASAEEAIIGTDVLQDHNAILDFEHRTCTLKGKKFRLLPVGGSLEDEFDLE
[2]
  autocleavage / autoactivation: do not autoactivate

B4: (E/D): SASPase mutant, aspartic acid No. 212 substituted to glutamic acid (protein, UniProt Q53RT3 191-326, looked up, variant D212E)
Retroviral-like aspartic …: B3 Retroviral-like aspartic … with A22E
[2]
  autocleavage / autoactivation: do not autoactivate

B5: activated SASPase: truncated 12 kD activated form of the aspartic acid protease SASPase, sequence SEQ ID NO: 6 (protein, listed as Homo Sapiens)
chain: T1 sequence (Q53RT3 189-326)
[3]; 0.1 M acetate buffer pH 5.0, 37° C., 1 h to 24 h
  insulin-degrading activity: capable of degrading insulin
corneodesmosin; 60 μg of activated SASPase, 24 hours
  percentage of residual corneodesmosin compared with the controls: significant decrease
corneodesmosin; 24 hours
  % Residual corneodesmosin T24 h/T0*100: 75%
  Standardized corneodesmosin T24 h: 24918
corneodesmosin
  Standardized corneodesmosin T0: 33107
